T1: human FcgRIIa type H extracellular domain (human, UniProt P12318 34-217)
T1 construct: extracellular domain; also called hFcgRIIaH
T1 sequence (looked up): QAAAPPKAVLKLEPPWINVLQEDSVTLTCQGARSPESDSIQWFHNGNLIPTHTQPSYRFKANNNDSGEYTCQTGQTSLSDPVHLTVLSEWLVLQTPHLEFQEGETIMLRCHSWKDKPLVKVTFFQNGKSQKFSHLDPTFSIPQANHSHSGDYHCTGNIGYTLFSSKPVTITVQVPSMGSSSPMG

T2: human FcgRIIb extracellular domain (human, UniProt P31994 43-217)
T2 construct: extracellular domain; also called hFcgRIIb
T2 sequence (looked up): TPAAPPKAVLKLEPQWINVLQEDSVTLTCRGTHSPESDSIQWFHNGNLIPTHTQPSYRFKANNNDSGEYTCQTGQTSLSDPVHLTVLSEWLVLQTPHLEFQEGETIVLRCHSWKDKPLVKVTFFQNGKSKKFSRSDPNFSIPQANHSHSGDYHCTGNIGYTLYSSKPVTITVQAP

T3: human FcgRIIa type R extracellular domain (human, UniProt P12318 34-217)
T3 construct: extracellular domain; also called hFcgRIIaR
T3 sequence (looked up): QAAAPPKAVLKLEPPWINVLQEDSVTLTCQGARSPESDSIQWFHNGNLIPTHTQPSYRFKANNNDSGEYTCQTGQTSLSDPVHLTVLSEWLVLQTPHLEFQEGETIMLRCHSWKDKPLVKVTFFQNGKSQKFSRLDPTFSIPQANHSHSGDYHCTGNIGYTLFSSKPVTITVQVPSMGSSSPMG


What was measured:
[1] = target: T1, human FcgRIIa type H extracellular …; assay: SPR 25C
[2] = target: T4, human FcgRIIIa V158 extracellular domain (human, UniProt P08637 17-208); assay: SPR 25C
T4 construct: extracellular domain; also called hFcgRIIIaV
T4 sequence (P08637 17-208 F176V): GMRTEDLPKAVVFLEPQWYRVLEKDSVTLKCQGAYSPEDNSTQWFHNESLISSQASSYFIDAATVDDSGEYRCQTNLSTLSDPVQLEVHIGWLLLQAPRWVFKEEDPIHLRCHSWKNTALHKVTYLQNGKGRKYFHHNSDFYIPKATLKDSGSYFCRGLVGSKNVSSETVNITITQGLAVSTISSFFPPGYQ

[3] = target: T2, human FcgRIIb extracellular domain; assay: SPR 25C
[4] = target: T5, human FcgRIIIa F158 extracellular domain (human, UniProt P08637 17-208); assay: SPR 25C
T5 construct: extracellular domain; also called hFcgRIIIaF
T5 sequence (P08637 17-208): as the sequence (P08637 17-208 F176V) above, with V160F counted along it

[5] = target: T3, human FcgRIIa type R extracellular …; assay: SPR 25C
[6] = target: T6, human FcgRIa extracellular domain (human, UniProt P12314 16-292); assay: SPR 25C
T6 construct: extracellular domain; also called hFcgRIa
T6 sequence (P12314 16-292): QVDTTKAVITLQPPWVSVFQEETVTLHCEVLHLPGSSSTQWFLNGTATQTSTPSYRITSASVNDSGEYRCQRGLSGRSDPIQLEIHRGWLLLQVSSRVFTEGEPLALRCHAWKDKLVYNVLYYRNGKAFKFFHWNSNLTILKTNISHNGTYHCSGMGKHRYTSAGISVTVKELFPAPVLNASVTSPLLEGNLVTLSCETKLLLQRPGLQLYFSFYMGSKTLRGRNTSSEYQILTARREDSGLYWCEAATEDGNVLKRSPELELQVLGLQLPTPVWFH

human FcRn = human FcRn (human, UniProt P55899 24-290; P61769 21-119); assay: SPR 25C pH 6.0, steady state
Outline: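 Antibody (~400 RU) captured on anti-Fab-lambda sensor chip, human FcRn injected as analyte.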

[7] = target: T7, biotinylated Fc-fused monkey CD137 (monkey, biotin on the AviTag); assay: ELISA, 1 mM ADP, 0.156 ug/mL; set-up: reference not given here
T7 construct: also called cyCD137-Fc-BAP
T7 sequence (chain, as listed by the source limits assumed): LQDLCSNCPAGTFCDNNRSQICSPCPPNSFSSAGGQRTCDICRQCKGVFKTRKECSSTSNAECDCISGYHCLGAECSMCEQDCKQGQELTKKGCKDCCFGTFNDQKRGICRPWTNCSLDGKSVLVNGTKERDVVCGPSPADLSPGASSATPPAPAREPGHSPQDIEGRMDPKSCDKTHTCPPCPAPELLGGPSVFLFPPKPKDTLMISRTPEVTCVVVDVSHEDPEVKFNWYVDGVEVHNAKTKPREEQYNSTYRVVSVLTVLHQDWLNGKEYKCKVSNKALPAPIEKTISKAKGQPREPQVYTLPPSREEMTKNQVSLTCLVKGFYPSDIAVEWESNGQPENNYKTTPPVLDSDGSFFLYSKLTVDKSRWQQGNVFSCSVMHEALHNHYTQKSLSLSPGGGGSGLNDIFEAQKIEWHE
Method: (§1) The obtained antibodies were evaluated for binding to monkey CD137 by ELISA. The cyCD137-Fc-BAP prepared in Reference Example 1 was immobilized on Streptawell microtiter plates. After the unbound antigen was removed from the plates by washing each well of the plates with the wash buffer, the wells were blocked with 150 μL of a blocking buffer (TBS with 2% BSA) for 1 hour or more. The blocking buffer was removed from each well, and 100 μL of the purified antibodies diluted in TBS with a final concentration of 1 mM ADP, or TBS with a final concentration 1 mM ADP was added to each well. The plate to which the antibody was added was shaken at 600 rpm for 1 hour. The AP-conjugated anti-human lambda antibodies (BETHYL) diluted in TBS with a final concentration of 1 mM ADP were added to each well after washing with a wash buffer (TBS with 0.1% Tween20) containing a final concentration of 1 mM ADP. After incubation for one hour and washing with a wash buffer containing a final concentration of 1 mM […], BluePhos phosphate substrate (KPL) was added. Color development was measured by absorbance at 600 nm. Samples with a concentration-dependent increase in the absorbance ratio can be said to be bound to monkey CD137.

[8] = target: T7, biotinylated Fc-fused monkey CD137; assay: ELISA, 1 mM ADP, 0.625 ug/mL; set-up: reference not given here
Method: as §1

[9] = target: T7, biotinylated Fc-fused monkey CD137; assay: ELISA, 1 mM ADP, 10 ug/mL; set-up: reference not given here
Method: as §1

[10] = target: T7, biotinylated Fc-fused monkey CD137; assay: ELISA, 1 mM ADP, 0.010 ug/mL; set-up: reference not given here
Method: as §1

[11] = target: T7, biotinylated Fc-fused monkey CD137; assay: ELISA, 1 mM ADP, 0.039 ug/mL; set-up: reference not given here
Method: as §1

[12] = target: T7, biotinylated Fc-fused monkey CD137; assay: ELISA, 1 mM ADP, 2.5 ug/mL; set-up: reference not given here
Method: as §1

hCD137 (FXa digested) [13] = target: T8, hCD137 (FXa digested) (human, UniProt Q07011 24-186); assay: SPR, no small molecule
T8 construct: Factor Xa digestion and Protein A removed the Fc; also called human CD137 extracellular domain
T8 sequence (Q07011 other isoform, or with tags, fused parts or gaps limits assumed): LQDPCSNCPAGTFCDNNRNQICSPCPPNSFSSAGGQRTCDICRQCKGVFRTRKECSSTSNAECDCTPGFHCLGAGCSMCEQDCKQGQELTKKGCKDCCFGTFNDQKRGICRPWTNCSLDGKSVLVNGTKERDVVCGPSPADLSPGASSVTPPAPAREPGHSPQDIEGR
Method: (§2) Biacore T200 (GE Healthcare) was used to analyze the interaction of antigen-antibody reaction between the anti-CD137 antibodies and hCD137 (FXa digest). […] For the running buffer, 20 mM ACES, 150 mM NaCl, 2 mM MgCl₂, 0.05% Tween20 (pH 7.4) was used, and 10 mM Glycine-HCl (pH 1.5) was used as the regeneration solution.
(§3) After capturing of the anti-CD137 antibodies suspended in TBS, 500 nM hCD137 (FXa digest) was injected into each flow cell at a flow rate of 10 μL/min for three minutes. This three-minute period served as the binding phase for hCD137 (FXa digest), and after the binding phase ended, the two-minute period of switching to the running buffer served as the dissociation phase for hCD137 (FXa digest). After completion of the dissociation phase, the regenerative solution was injected at a flow rate of 30 μl/min for 30 seconds. The above was the cycle for measuring the binding activity of anti-CD137 antibodies. The binding amount of hCD137 (FXa digest) that interacted with the anti-CD137 antibody in the binding phase was adjusted by the amount of antibody captured. Biacore T200 Evaluation Software Version 2.0 was used to display the binding amount (RU) per capture ligand 1 RU, and values of the antibody capture amount (amount of antibody captured) and antigen-binding amount were obtained. Since the binding amount of antigen reflects the binding activity, it can be said that dependence on a small molecule is recognized when the value in the presence of the small molecule (ATP, ADP or AMP) is higher than the value without the small molecule. In particular, the larger the difference is, the higher the dependence is on a small molecule.

hCD137 (FXa digested) [14] = target: T8, hCD137 (FXa digested); assay: SPR, 1 mM ATP
Method: as §2, §3

hCD137 (FXa digested) [15] = target: T8, hCD137 (FXa digested); assay: SPR, 100 uM ATP
Method: as §2, §3

hCD137 (FXa digested) [16] = target: T8, hCD137 (FXa digested); assay: SPR, 1 mM AMP
Method: as §2, §3

hCD137 (FXa digested) [17] = target: T8, hCD137 (FXa digested); assay: SPR, 100 uM ADP
Method: as §2, §3

hCD137 (FXa digested) [18] = target: T8, hCD137 (FXa digested); assay: SPR, 10 uM ADP
Method: as §2, §3

hCD137 (FXa digested) [19] = target: T8, hCD137 (FXa digested); assay: SPR, 100 uM AMP
Method: as §2, §3

Row | absorbance ratio [7] | absorbance ratio [8] | absorbance ratio [9] | absorbance ratio [10] | absorbance ratio [11] | absorbance ratio [12] | Binder | also measured
1 | – | – | – | – | – | – | A375-TT16/B167-Lamlib (antibody, human IgG1, lambda, copies: 2 + 2) heavy: EVQLVESGGGLVKPGGSLRLSCAASGFTFSTFTMNWVRQAPGKGLEWVSSISSKSTYIEYADSFKVRFTISRDNAKNSLYLQMNSLRAEDTAVYYCARYGAKNFLNWVFDYWGQGTLVTVSSASTKGPSVFPLAPSSKSTSGGTAALGCLVKDYFPEPVTVSWNSGALTSGVHTFPAVLQSSGLYSLSSVVTVPSSSLGTQTYICNVNHKPSNTKVDKKVEPKSCDKTHTCPPCPAPEYLGDDSVFLFPPKPKDVLMISRTPEVTCVVVDVSHEDPEVKFNWYVDGVEVHNAKTKPREEQYNSTYRVVSVLPVLHQDWLNGKEYKCKVSNKALPKPIEKTISKAKGQPREPQVYTLPPSREEMTKNQVSLTCLVKGFYPSDIAVEWESNGQPENNYKTTPPVLDSDGSFFLYSKLTVDKSRWQQGNVFSCSVMHEALHNHYTQKSLSLSP light: QSALTQPPSASGSPGQTVTISCTGTRYDVGYYEYVSWYQQHPGKAPKLMIYETSKRLSGVPDRFSGSKSGNTASLTVSGLQAEDEADYYCSSYRYEHQVSFGGGTKLTVLGQPKAAPSVTLFPPSSEELQANKATLVCLISDFYPGAVTVAWKADSSPVKAGVETTTPSKQSNNKYAASSYLSLTPEQWKSHRSYSCQVTHEGSTVEKTVAPTECS | binding per 1RU antibody [1]: 0.0126 RU; relative binding (A375-G1T3/B167-Lamlib=1) [1]: 0.22; binding per 1RU antibody [2]: -0.0002 RU; relative binding (A375-G1T3/B167-Lamlib=1) [2]: 0; binding per 1RU antibody [3]: 0.109 RU; relative binding (A375-G1T3/B167-Lamlib=1) [3]: 9.94; binding per 1RU antibody [4]: 0.0001 RU; relative binding (A375-G1T3/B167-Lamlib=1) [4]: 0; binding per 1RU antibody [5]: 0.0359 RU; relative binding (A375-G1T3/B167-Lamlib=1) [5]: 0.77; binding per 1RU antibody [6]: 0.0034 RU; relative binding (A375-G1T3/B167-Lamlib=1) [6]: 0.04; Kd (human FcRn): 1.51 µM
2 | 1 | 2.3 | 17.9 | 0.8 | 0.7 | 6.9 | dBBAT053-P253 (antibody, human IgG1, lambda, V domains shown) VH: EVQLVESGGDLVKPGGGLRLSCAASGFTFSTFTMNWVRQAPGKGLEWVSSISSRSNYIYYADSVKGRFTISRDNAKNSLYLQMNSLRAEDTAVYYCARFGLKNEMNWVFDYWGQGTLVTVSS VL: QSALTQPPSASGSPGQTVTISCTGTSSDVGFYNYVSWYQQHPGKAPKLMIYEGSKKPSGVPDRFSGSKSGNTASLTVSGLQAEDEADYFCSVYSYIYYVLFGGGTKLTVLG | –
3 | 3.6 | 14.4 | 42.9 | 1.1 | 1.5 | 32.4 | dBBAT015-P253 (antibody, human IgG1, lambda, V domains shown) VH: EVQLVESGGDLVKPGGGLRLSCAASGFTFSTYTMNWVRQAPGKGLEWVSSISSRSTYATYADSVKGRFTISRDNAKNSLYLQMNSLRAEDTAVYYCARYGLKNSLNWVFDYWGQGTLVTVSS VL: QSALTQPPSASGSPGQTVTISCTGTSTDVGFYNYVSWYQQHPGKAPKLMIYEVSKKPSGVPDRFSGSKSGNTASLTVSGLQAEDEADYFCSTYSYDESVAFGGGTKLTVLG | –
4 | 22 | 29.2 | 30.5 | 3.8 | 0.7 | 30.2 | dBBAT007-P253 (antibody, human IgG1, lambda, V domains shown) VH: EVQLVESGGDLVKPGGGLRLSCAASGFTFSGYTMNWVRQAPGKGLEWVSSISSRSNYAHYADSVKGRFTISRDNAKNSLYLQMNSLRAEDTAVYYCARFGLKNFMNWVFDYWGQGTLVTVSS VL: QSALTQPPSASGSPGQTVTISCTGTSSDVGFYNYVSWYQQHPGKAPKLMIYGTSKRPSGVPDRFSGSKSGNTASLTVSGLQAEDEADYFCSSYAYDAQLVFGGGTKLTVLG | –
5 | – | – | – | – | – | – | dBBAT042-P253 (antibody, human IgG1, lambda, V domains shown) VH: EVQLVESGGDLVKPGGGLRLSCAASGFTFSSHTMNWVRQAPGKGLEWISSISSRSNYKSYADSVKGRFTISRDNAKNSLYLQMNSLRAEDTAVYYCARYGHKNMHNWVFDYWGQGTLVTVSS VL: QSALTQPPSASGSPGQTVTISCTGTSSDVGFYNYVSWYQQHPGKAPKLMIYEVSKRPSGVPDRFSGSKSGNTASLTVSGLQAEDEADYFCSTYRYDQNVAFGGGTKLTVLG | binding amount (hCD137 (FXa digested) [13]): 2.9 RU; binding amount (hCD137 (FXa digested) [14]): 11.7 RU; binding amount (hCD137 (FXa digested) [15]): 4.3 RU; binding amount (hCD137 (FXa digested) [16]): 7.8 RU; binding amount (hCD137 (FXa digested) [17]): 58.7 RU; binding amount (hCD137 (FXa digested) [18]): 19.1 RU; binding amount (hCD137 (FXa digested) [19]): 4.7 RU
6 | 2.2 | 5.8 | 33.9 | 1 | 1.2 | 16.8 | dBBAT134-P253 (antibody, human IgG1, lambda, V domains shown) VH: EVQLVESGGDLVKPGGGLRLSCAASGFTFSSYTMNWVRQAPGKGLEWVSSISSRSNYADYADSVKGRFTISRDNAKNSLYLQMNSLRAEDTAVYYCARYGAKNEMNWVFDYWGQGTLVTVSS VL: QSALTQPPSASGSPGQTVTISCTGTSTDVGFYNYVSWYQQHPGKAPKLMIYEVSKRPSGVPDRFSGSKSGNTASLTVSGLQAEDEADYFCSSYTYDQQLMFGGGTKLTVLG | –

Source: patent US20230272099A1 (Chugai, published 2023)
